Test results taken from publication PMC12795458.

Target: RipA fused to the Nanoluciferase large subunit (CEPlac-lgbit-ripA)
Test: split-luciferase assay
Conditions: in S. pneumoniae cells, signal relative to control strains R5380 and R5570, read off a plot

**Q.** “DnaN fused to the Nanoluciferase small subunit (CEPIIlac-smBit-dnaN) (from UniProt O06672) H183P” was tested. Which response (relative fold induction) (strain R5566 vs R5381, parent: est. 22) did it give?
**A.** 4.8

**Q.** “DnaN fused to the Nanoluciferase small subunit (CEPIIlac-smBit-dnaN) (from UniProt O06672) Y249N” was tested. Which response (relative fold induction) (strain R5568 vs R5381, parent: est. 13) did it give?
**A.** 4.8

**Q.** For “DnaN fused to the Nanoluciferase small subunit (CEPIIlac-smBit-dnaN) (from UniProt O06672) L185R”, which response (relative fold induction) (strain R5567 vs R5381, parent: est. 27) is on record?
**A.** 5.5
